Substitutions are numbered along the chain they refer to.

The source of these data is US10428140B2, “Anti-EphA4 antibody” (EISAI R&D MANAGEMENT CO., LTD., priority 2015, dated 2019).

The chains are these.
T1: human EphA6 (Homo sapiens, UniProt Q9UF33)
T1 construct: a protein of the extracellular region of each human Eph receptor fused with the SEAP protein and the His tag; made in house; host or cells: Expi293F cells (culture supernatant)
T1 sequence (Q9UF33 23-550 limits assumed): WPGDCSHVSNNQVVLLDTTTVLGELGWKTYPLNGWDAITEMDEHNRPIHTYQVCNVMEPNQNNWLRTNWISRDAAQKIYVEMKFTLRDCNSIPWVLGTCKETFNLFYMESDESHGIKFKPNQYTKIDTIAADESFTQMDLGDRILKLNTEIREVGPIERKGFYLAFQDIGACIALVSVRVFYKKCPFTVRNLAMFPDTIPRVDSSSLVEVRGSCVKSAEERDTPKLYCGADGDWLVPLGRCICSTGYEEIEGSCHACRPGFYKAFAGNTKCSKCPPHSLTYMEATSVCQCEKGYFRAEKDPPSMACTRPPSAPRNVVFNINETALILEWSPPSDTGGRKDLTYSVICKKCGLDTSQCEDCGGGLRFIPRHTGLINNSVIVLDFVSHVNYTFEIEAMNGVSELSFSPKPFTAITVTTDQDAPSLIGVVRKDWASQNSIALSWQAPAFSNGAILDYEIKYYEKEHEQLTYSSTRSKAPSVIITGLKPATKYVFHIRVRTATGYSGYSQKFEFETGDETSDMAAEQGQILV

B1: 69 (antibody, V domains shown)
VH: QIQLVQSGSELKKPGASVKVSCKASGYTFTDYSMHWVRQAPGQGLKWMGWINTETGEPTYADDFKGRFVFSLDTSVSTAYLQISSLKAEDTAVYYCARIPLYYYGSRYWYFDVWGQGTTVTVSS
VL: DIQMTQSPSSLSASVGDRVTITCRASENIYRNLAWYQQKPGKAPKLLVYAATNLADGVPSRFSGSGSGTDYTLTISSLQPEDFATYYCQHFWGTPWTFGQGTKVEIK
modifications: synthetic humanized antibody heavy chain variable region sequence; synthetic humanized antibody light chain variable region sequence
B2: 81 (antibody, V domains shown)
VL: B1 VL with V48L, P80S
VH: B1 VH with I2V, K46E, D62Q, D63G, K65T
modifications: constant regions without entry; synthetic humanized antibody light chain variable region sequence; synthetic humanized antibody heavy chain variable region sequence
B3: 156 (antibody, V domains shown)
VH: B1 VH with D62Q, D63G, K65T
VL: B1 VL with K45Q, V48L
modifications: synthetic humanized antibody heavy chain variable region sequence; synthetic humanized antibody light chain variable region sequence
B4: 83 (antibody, V domains shown)
VL: B1 VL with V48L, P80S
VH: B1 VH with D62Q, D63G, K65T
modifications: constant regions without entry; synthetic humanized antibody light chain variable region sequence; synthetic humanized antibody heavy chain variable region sequence
B5: 136 (antibody, V domains shown)
VH: B1 VH with I2V
VL: EIVMTQSPATLSVSPGERATLSCRASENIYRNLAWYQQKPGQSPRLLIYAATNLADGIPARFSGSGSGTEYTLTISSLQSEDFAVYYCQHFWGTPWTFGQGTKVEIK
modifications: synthetic humanized antibody heavy chain variable region sequence; synthetic humanized antibody light chain variable region sequence
B6: 84 (antibody, V domains shown)
VL: B1 VL with V48L, P80S
VH: B1 VH with I2V, K46E
modifications: constant regions without entry; synthetic humanized antibody light chain variable region sequence; synthetic humanized antibody heavy chain variable region sequence
B7: 82 (antibody, V domains shown)
VL: B1 VL with V48L, P80S
VH: B1 VH with I2V, D62Q, D63G, K65T
modifications: constant regions without entry; synthetic humanized antibody light chain variable region sequence; synthetic humanized antibody heavy chain variable region sequence
B8: antibody A: mouse anti-EphA4 monoclonal antibody, IgG1/κ; heavy chain variable region SEQ ID NO: 11, light chain variable region SEQ ID NO: 13 (antibody, listed as Mus musculus, V domains shown)
VH: QIQLVQSGPELKKPGETVKISCKASGYTFTDYSMHWVKQAPGKGLKWMGWINTETGEPTYADDFKGRFAFSLETSASTAYLQINNLKNEDTATYFCARIPLYYYGSRYWYFDVWGAGTTVTVSS
VL: DIQMTQSPASLSVSVGETVTITCRASENIYRNLAWYQQKQGKSPQLLVYAATNLADGVPSRFSGSGSGTQYSLKINSLQSEDFGSYYCQHFWGTPWTFGGGTKLEIK

The first assay deals with T2, human EphA2 (Homo sapiens, UniProt P29317).
T2 construct: a protein of the extracellular region of each human Eph receptor fused with the SEAP protein and the His tag; made in house; host or cells: Expi293F cells (culture supernatant)
T2 sequence (P29317 24-537 limits assumed): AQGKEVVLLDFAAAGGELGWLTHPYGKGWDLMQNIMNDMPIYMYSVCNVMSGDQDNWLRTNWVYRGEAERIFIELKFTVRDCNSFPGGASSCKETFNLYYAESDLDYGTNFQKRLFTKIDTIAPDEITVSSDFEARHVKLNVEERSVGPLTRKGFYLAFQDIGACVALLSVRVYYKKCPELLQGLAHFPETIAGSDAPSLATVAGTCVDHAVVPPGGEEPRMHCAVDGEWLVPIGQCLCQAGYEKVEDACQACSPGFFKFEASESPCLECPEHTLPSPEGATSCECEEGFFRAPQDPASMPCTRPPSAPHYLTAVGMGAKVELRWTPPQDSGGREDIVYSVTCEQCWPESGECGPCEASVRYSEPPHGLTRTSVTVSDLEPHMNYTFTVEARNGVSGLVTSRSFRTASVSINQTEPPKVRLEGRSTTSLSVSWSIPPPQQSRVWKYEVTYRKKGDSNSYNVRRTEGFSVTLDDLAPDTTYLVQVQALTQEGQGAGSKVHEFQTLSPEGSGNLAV
The assay can be described thus: Selectivity ELISA of humanized antibodies for human Eph receptor. The conditions noted are these: coated protein 1 nM. The format is binding. From the text:
(§1) According to the method described in Example 7, a DNA sequence encoding the signal sequence and the extracellular region of each human Eph receptor (EphA1, EphA2, EphA3, EphA4, EphA5, EphA6, EphA7, EphA8, EphA10, EphB1, EphB2, EphB3, EphB4, and EphB6) was amplified by RT-PCR using tissue-derived total RNA and cloned into a pENTR1A vector (Invitrogen/Life Technologies) having a DNA sequence encoding SEAP protein and histidine tag. Next, the DNA sequence encoding the signal sequence and the extracellular region of each human Eph receptor, SEAP protein, and histidine tag was transferred to a pcDNA3.1_rfcB vector through LR reaction using Gateway System (Invitrogen/Life Technologies) to construct a vector for the expression of a protein of the extracellular region of each human Eph receptor fused with the SEAP protein and the His tag (referred to as “Eph receptor extracellular region-SEAP-His protein”) (this vector is referred to as “Eph receptor extracellular region-SEAP-His protein expression vector”).
(§2) Next, each human Eph receptor extracellular region-SEAP-His protein expression vector was transferred to Expi293F cells (Gibco/Thermo Fisher Scientific) using Expi293 expression system (Gibco/Thermo Fisher Scientific). After incubation (5% CO2, 37° C.) for 5 days, the culture supernatant was recovered and centrifuged at 1500 rpm at room temperature for 5 minutes. The centrifugation supernatant was filtered through a 0.45-μm filter (Merck Millipore).
(§3) Each anti-EphA4 monoclonal humanized antibody obtained in Example 16 was evaluated for its binding activity against each human Eph receptor according to the following steps.
(§4) Each well of a 96-well plate (Nunc) was coated with a rabbit anti-6-His antibody (Bethyl Laboratories). Each well was […] After washing with 0.05% Tween 20/PBS (Nacalai Tesque) three times, the SEAP-His protein of human EphA1, EphA2, EphA3, EphA4, EphA5, EphA6, EphA7, EphA8, EphA10, EphB1, EphB2, EphB3, EphB4, or EphB6 was added (final concentration: 1 nM) to each well and incubated at room temperature for 1 hour. After washing three times, the humanized antibody was added to each well and incubated at room temperature for 1 hour. After washing three times, a horseradish peroxidase-labeled donkey […] IgG antibody (Jackson ImmunoResearch Laboratories) was added thereto and incubated at room temperature for 1 hour. After washing three times, TMB Microwell Peroxidase Substrate System (Kirkegaard & Perry Laboratories (KPL)) was added to each well. After confirmation of moderate color development, an equal amount of a reaction stopping solution (1N H2SO4, Wako Pure Chemical Industries) was added to each well. The absorbance at 450 nm was read using a microplate reader (Thermo Fisher Scientific).
(In general: In an ELISA, binding on a coated surface is turned into a signal by an enzyme label.)
For the molecule B1, the “hEphA2-SEAP-: absorbance at 450 nm, percentage with respect to hEphA4-SEAP-His as 100%” value is listed as 5.5%.

Regarding B2, the “hEphA2-SEAP-: absorbance at 450 nm, percentage with respect to hEphA4-SEAP-His as 100%” value is 4.8%.

As to B3, the “hEphA2-SEAP-: absorbance at 450 nm, percentage with respect to hEphA4-SEAP-His as 100%” value was 5.5%.

For B4, the “hEphA2-SEAP-: absorbance at 450 nm, percentage with respect to hEphA4-SEAP-His as 100%” value is given as 5.8%.

Regarding B5, the “hEphA2-SEAP-: absorbance at 450 nm, percentage with respect to hEphA4-SEAP-His as 100%” value worked out at 5.1%.

For B6, the “hEphA2-SEAP-: absorbance at 450 nm, percentage with respect to hEphA4-SEAP-His as 100%” value is listed as 4.9%.

In the case of B7, the “hEphA2-SEAP-: absorbance at 450 nm, percentage with respect to hEphA4-SEAP-His as 100%” value was 5.4%.

The next assay addresses T1, human EphA6. The assay is described as above. The format is binding. The conditions noted are these: coated protein 1 nM.
Description: as §1, §2, §3, §4
Turning to B1, the “hEphA6-SEAP-: absorbance at 450 nm, percentage with respect to hEphA4-SEAP-His as 100%” value is recorded as 9.5%.

On to B2, for which the “hEphA6-SEAP-: absorbance at 450 nm, percentage with respect to hEphA4-SEAP-His as 100%” value came to 8.8%.

Take B3: the “hEphA6-SEAP-: absorbance at 450 nm, percentage with respect to hEphA4-SEAP-His as 100%” value stood at 8.9%.

As to B4, the “hEphA6-SEAP-: absorbance at 450 nm, percentage with respect to hEphA4-SEAP-His as 100%” value came to 7.5%.

For the molecule B5, the “hEphA6-SEAP-: absorbance at 450 nm, percentage with respect to hEphA4-SEAP-His as 100%” value was 7.2%.

For B6, the “hEphA6-SEAP-: absorbance at 450 nm, percentage with respect to hEphA4-SEAP-His as 100%” value is 6.0%.

As to B7, the “hEphA6-SEAP-: absorbance at 450 nm, percentage with respect to hEphA4-SEAP-His as 100%” value turned out to be 8.7%.

The target in the next assay is T3, human EphA4 (Homo sapiens, UniProt P54764).
T3 construct: made in house; not restated for the human SEAP-His protein
T3 sequence (P54764 20-547): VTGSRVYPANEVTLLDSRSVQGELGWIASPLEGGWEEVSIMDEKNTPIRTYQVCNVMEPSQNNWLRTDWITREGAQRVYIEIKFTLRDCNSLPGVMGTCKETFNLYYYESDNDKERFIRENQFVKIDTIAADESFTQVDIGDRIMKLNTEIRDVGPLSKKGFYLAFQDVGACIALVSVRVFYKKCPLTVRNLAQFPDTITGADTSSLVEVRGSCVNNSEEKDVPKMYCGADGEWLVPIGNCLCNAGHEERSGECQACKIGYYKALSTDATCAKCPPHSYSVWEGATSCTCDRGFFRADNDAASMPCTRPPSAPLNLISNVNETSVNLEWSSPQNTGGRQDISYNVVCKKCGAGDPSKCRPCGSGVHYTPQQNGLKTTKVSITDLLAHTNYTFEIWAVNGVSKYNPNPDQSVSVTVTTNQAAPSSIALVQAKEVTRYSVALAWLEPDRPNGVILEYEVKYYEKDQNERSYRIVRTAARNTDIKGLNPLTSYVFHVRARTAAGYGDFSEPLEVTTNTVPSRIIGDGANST
The experiment in a line: Affinity of humanized antibodies by SPR (Biacore T200). The class given is binding. As to conditions: human EphA4 extracellular region-SEAP-His; 1:1 binding model. The procedure:
The binding affinity of each anti-EphA4 monoclonal humanized antibody obtained in Example 16 for human EphA4 was determined by surface plasmon resonance (SPR) using Biacore T200 (GE Healthcare). First, for the assay of antibody A, a rat anti-mouse IgG1 antibody produced with a conventional method by immunizing rat with mouse IgG1 antibody was immobilized on sensor chip CM5. The immobilization of the rat anti-mouse IgG1 antibody on sensor chip CM5 was performed by the amine coupling method using N-hydroxysuccinimide (NHS) and N-ethyl-N′-(3-dimethylaminopropyl)carbodiimide hydrochloride (EDC). Ethanolamine was used in blocking (the sensor chip and the reagents for immobilization were all manufactured by GE Healthcare). The antibody was diluted with a buffer solution for immobilization (10 mM sodium acetate, pH 4.5) and immobilized on the sensor chip according to the protocol attached to Biacore T200. For the assay of each humanized monoclonal antibody, a protein A chip (GE Healthcare, 29-1383-03) was used. Antibody A or the humanized monoclonal antibody was diluted with a running buffer solution HBS-EP (GE Healthcare), injected onto only flow cell 2 for 120 seconds, and captured (captured amount: approximately 30 to 60 RU). Subsequently, human EphA4 extracellular region-SEAP-His protein serially diluted in the range of 50, 16.7, 5.6, 1.9, and 0.6 nM using HBS-EP was sequentially added from the lower toward higher concentration sides without regeneration operation. Binding reaction curves were sequentially observed at the time of the addition (association phase, for 120 sec) and after the completion of the addition (dissociation phase, for 900 sec). After the completion of each observation, the sensor chip was regenerated by the addition of 3 M MgCl2 (for 60 sec) or 10 mM Glycine-HCl pH 1.5 (for 30 sec). The obtained binding reaction curves were subjected to fitting analysis with 1:1 binding models using software BIA evaluation attached to the system to calculate the affinity (KD=kd/ka) for human EphA4 (Table 6).
A general note: In SPR one partner is held on a chip, and binding of the other changes the refractive index at the surface.
B8: the ka amounted to 420000 M⁻¹ s⁻¹ and the kd is 0.00025 s⁻¹.

On to B1, for which the ka turned out to be 340000 M⁻¹ s⁻¹ and the kd was found to be 0.00037 s⁻¹.

In turn, B2 displayed a ka of 340000 M⁻¹ s⁻¹ and a kd of 0.00054 s⁻¹.

The molecule B4 registered a ka of 290000 M⁻¹ s⁻¹ and a kd of 0.00054 s⁻¹.

Take B6: the ka was found to be 350000 M⁻¹ s⁻¹ and the kd turned out to be 0.00056 s⁻¹.

As for B7, the ka was determined as 290000 M⁻¹ s⁻¹ and the kd came out at 0.00046 s⁻¹.

Staying with this assay, now noted: human EphA4 extracellular region-SEAP-His; KD=kd/ka.
By Kd is commonly meant a measure of binding affinity in units of concentration. Low values mean tighter binding, high ones weaker binding. B1 had a Kd of 1.1 nM.

Consider B2, for which binding was characterised by a dissociation constant (Kd) of 1.6 nM.

For B4, the Kd is 1.9 nM.

Take B6: the Kd is 1.7 nM.

Consider B7, for which the Kd came to 1.6 nM.
